Reference: patent publication US20200157190A1

Legend:
Antigen 1 [1] = experiment: ELISA, supernatant UNDILUTED, Plate 1 (Antigen 1), column 3, BLANK 0.07
Antigen 2 [2] = experiment: ELISA, supernatant UNDILUTED, Plate 2 (Antigen 2), column 3, BLANK 0.06
Antigen 2 [3] = experiment: ELISA, supernatant 1 TO 16, Plate 2 (Antigen 2), column 3, BLANK 0.06
Antigen 2 [4] = experiment: ELISA, supernatant 1 TO 256, Plate 2 (Antigen 2), column 3, BLANK 0.06
Antigen 1 [5] = experiment: ELISA, supernatant 1 TO 256, Plate 1 (Antigen 1), column 3, BLANK 0.07
Antigen 1 [6] = experiment: ELISA, supernatant 1 TO 64, Plate 1 (Antigen 1), column 3, BLANK 0.07
Antigen 2 [7] = experiment: ELISA, supernatant 1 TO 64, Plate 2 (Antigen 2), column 3, BLANK 0.06
Antigen 1 [8] = experiment: ELISA, supernatant 1 TO 16, Plate 1 (Antigen 1), column 3, BLANK 0.07
Antigen 1 [9] = experiment: ELISA, supernatant 1 TO 4, Plate 1 (Antigen 1), column 3, BLANK 0.07
Antigen 2 [10] = experiment: ELISA, supernatant 1 TO 4096, Plate 2 (Antigen 2), column 3, BLANK 0.06
Antigen 1 [11] = experiment: ELISA, supernatant 1 TO 4096, Plate 1 (Antigen 1), column 3, BLANK 0.07
Antigen 2 [12] = experiment: ELISA, supernatant 1 TO 4, Plate 2 (Antigen 2), column 3, BLANK 0.06
Antigen 2 [13] = experiment: ELISA, supernatant 1 TO 1024, Plate 2 (Antigen 2), column 3, BLANK 0.06
Antigen 1 [14] = experiment: ELISA, supernatant 1 TO 1024, Plate 1 (Antigen 1), column 3, BLANK 0.07

B1: Heavy Chain Construct 4 with Light Chain Construct 2 (VH2-VH1/VL2) (antibody)
heavy: QSLEESGGRLVSPGTPLTLTCTASGFSLSSNAMGWVRQAPGEGLEYIGIIRPGGSTYYASWAKGRFTISKTSSTTVDLKMTSLTTEDTATYFCARAWDIWGPGTLVTVSLGQPKAPSVFPLAPCCGDTPSSTVTLGCLVKGYLPEPVTVTWNSGTLTNGVRTFPSVRQSSGLYSLSSVVSVTSSSQPVTCNVAHPATNTKVDKTVAPSTCSKPTCPPPELLGGRPQPQPQPQPQPQPQPQPQPQPQPQPQPQPQPQSRQSVEESGGRLVTPGTPLTLTCTVSGFSLNTNAIRWVRQAPGKGLEWIGAIDASGNTYYASWAKGRFTISKTSTTVDLKITSPTTEDTATYFCNRFNTANIWGPGTLVTVSSGQPKAPSVFPLAPCCGDTPSSTVTLGCLVKGYLPEPVTVTWNSGTLTNGVRTFPSVRQSSGLYSLSSVVSVTSSSQPVTCNVAHPATNTKVDKTVAPSTCSKPTCPPPELLGGPSVFIFPPKPKDTLMISRTPEVTCVVVDVSQDDPEVQFTWYINNEQVRTARPPLREQQFNSTIRVVSTLPIAHQDWLRGKEFKCKVHNKALPAPIEKTISKARGQPLEPKVYTMGPPREELSSRSVSLACMINGFYPSDISVEWEKNGKAEDNYKTTPAVLDSDGSYFLYSKLSVPTSEWQRGDVFTCSVMHEALHNHYTQKSISRSPGK
light: AFELTQTPSSVEAAVGGTVTIRCQASQSISNQLSWYQQKPGQPPKRLIYRASTLASGVPARFKGSGSGTAFTLTISDLECADGATYYCQSFYYTDVIDYNAFGGGTEVVVTGDPVAPTVLIFPPAADQVATGTVTIVCVANKYFPDVTVTWEVDGTTQTTGIENSKTPQNSADCTYNLSSTLTLTSTQYNSHKEYTCKVTQGTTSVVQSFNRGDC
Antigen 1 [1]
  ELISA plate reading: 0.66
Antigen 2 [2]
  ELISA plate reading: 2.49
Antigen 2 [3]
  ELISA plate reading: 1.61
Antigen 2 [4]
  ELISA plate reading: 0.52
Antigen 1 [5]
  ELISA plate reading: 0.07
Antigen 1 [6]
  ELISA plate reading: 0.1
Antigen 2 [7]
  ELISA plate reading: 1.24
Antigen 1 [8]
  ELISA plate reading: 0.16
Antigen 1 [9]
  ELISA plate reading: 0.45
Antigen 2 [10]
  ELISA plate reading: 0.14
Antigen 1 [11]
  ELISA plate reading: 0.08
Antigen 2 [12]
  ELISA plate reading: 1.81
Antigen 2 [13]
  ELISA plate reading: 0.21
Antigen 1 [14]
  ELISA plate reading: 0.06
